Source: a protein production outcome set (Wang et al. 2014)

Experiment: label from the status in PepcDB records

Sequence | protein production
MQKPAVTVMVKAARLAGNVLLRGINKLDALNVVQKGRMDYASEVDADAEKVIIKELKRGYPEYAVFGEEGGVQGGKSGRYTWVIDPLDGTSNYLRGFPHYCVSIALVENGEPTDAVIFDPLRNELFTASRGAGAVLNDRRIRIAERKDLEGAMVHTGFPPRERARASAQLKCVDALLVQAEDVRRTGSAALDLAYVACGRADAYFEAGVKAWDIAAGVLLVREAGGRVCDYKGATPPRMDNMGPETQQIVAGNIKISDALQKVIVNTGYAREFDAKF | failed
ATEEFIIRIPPYHYIHVLDQNSNVSRVEVGPKTYIRQDNERVLFAPMRMVTVPPRHYCTVANPVSRDAQGLVLFDVTGQVRLRHADLEIRLAQDPFPLYPGEVLEKDITP | failed
RISWVGEAVKTDGKKSYYKKVCIDAETLEVGDCVSVIPDDSSKPLYLARVTALWEDSSNGQMFHAHWFCAGTDTVLGATSDPLELFLVDECEDMQLSYIHSKVKVIYKAPSENWAMEGGMDPESLLEGDDGKTYFYQLWYDQDYARFESPPKTQPTEDNKFKFCVSCARLAEMRQKEIPRVLEQLEDLDSRVLYYSATKNGILYRVGDGVYLPPEAFTFNIKLSSPVKRPRKEPVDEDLYPEHYRKYSDYIKGSNLDAPEPYRIGRIKEIFCPKKSNGRPNETDIKIRVNKFYRPENTHKSTPASYHADINLLYWSDEEAVVDFKAVQGRCTVEYGEDLPECVQVYSMGGPNRFYFLEAYNAKSKSFEDPPNHARSP | failed
MGLTKQYLRYVASAVFGVIGSQKGNIVFVTLRGEKGRYVAVPACEHVFIWDLRKGEKILILQGLKQEVTCLCPSPDGLHLAVGYEDGSIRIFSLLSGEGNVTFNGHKAAITTLKYDQLGGRLASGSKDTDIIVWDVINESGLYRLKGHKDAITQALFLREKNLLVTSGKDTMVKWWDLDTQHCFKTMVGHRTEVWGLVLLSEEKRLITGASDSELRVWDIAYLQEIEDPEEPDPKKIKGSSPGIQDTLEAEDGAFETDEAPEDRILSCRKAGSIMREGRDRVVNLAVDKTGRILACHGTDSVLELFCILSKKEIQKKMDKKMKKARKKAKLHSSKGEEEDPEVNVEMSLQDEIQRVTNIKTSAKIKSFDLIHSPHGELKAVFLLQNNLVELYSLNPSLPTPQPVRTSRITIGGHRSDVRTLSFSSDNIAVLSAAADSIKIWNRSTLQCIRTMTCEYALCSFFVPGDRQVVIGTKTGKLQLYDLASGNLLETIDAHDGALWSMSLSPDQRGFVTGGADKSVKFWDFELVKDENSTQKRLSVKQTRTLQLDEDVLCVSYSPNQKLLAVSLLDCTVKIFYVDTLKFFLSLYGHKLPVICMDISHDGALIATGSADRNVKIWGLDFGDCHKSLFAHDDSVMYLQFVPKSHLFFTAGKDHKIKQWDADKFEHIQTLEGHHQEIWCLAVSPSGDYVVSSSHDKSLRLWERTREPLILEEEREMEREAEYEESVAKEDQPAVPGETQGDSYFTGKKTIETVKAAERIMEAIELYREETAKMKEHKAICKAAGKEVPLPSNPILMAYGSISPSAYVLEIFKGIKSSELEESLLVLPFSYVPDILKLFNEFIQLGSDVELICRCLFFLLRIHFGQITSNQMLVPVIEKLRETTISKVSQVRDVIGFNMAGLDYLKRECEAKSEVMFFADATSHLEEKKRKRKKREKLILTLT | failed
MSGRLRNALHKIRDRGLTPRDLFSYGCIAGHRLLSGAWGTLMLRAKAGCLGITVGKGCECFGTVILSRWPGSRIELGDGVSIISSSRRCTSATIHAPTRLRTFAPTARIILEDGVSLNGTAITARSRTIRIGKGTMVAPNCVITDSDFHAMWPPETRLDTPAFERDADVTIGQHVWLGMRCIVLKGVTIGDGAIVAAGSVVTRDVPPATLVAGVPARVVRHLP | failed
MKSKWIFIQWFKYNNIRMKDESTNKFGSLNLAVLVLSVYVLGALIVDTTIKLPEETSRLLNYIDLAICIFFFVEFCIRLYHADSKMKFMRWGWIDLVSSIPMINFLRFGRVFRLIRLFRILRAFRTTKEFVTYVFRIKAQGAFTSATILAILLIIFSSIAILQVENASTSNITTAEDAIWWSYVTITTVGYGDKYPVTTEGRIIAMFLMTAGVGLFGTFTAYIASLFVSDNKKEETETKE | failed
AIASEVSCKKRDDYLEWPEYFMAVAFLSAQRSKDPNSQVGACIVNSENKIVGIGYNGMPNGCSDDVLPWRRTAENKLDTKYPYVCHAELNAIMNKNLTDVKGCSMYVALFPCNECAKLIIQAGIKEVIFMSDKYHDSDEATAARLLFNMAGVTFRKFIPKCSKIVIDFDSINSRPSQKLQ | failed
GNNVSDADIRAIKHSERRLRNHFLPQSLFSHCGFEQAFNYKYLRIMRIAVHPQIQQQGIGAQFIHYIELLAKEQGVDFIGASFGVNPELLSFWLNAGFSTARIGFTKDKASGEHSALLIKGL | failed
MAVSKMEKMTIIAAAEKEAAILQAIQGLQIVEVKRIFHSPEEEQALKSQYSFLQAEQSTEQLRKYETMLQQLQELLLFLTRSSGKGLKIKRKVYTLEELEQTFDEETLQSYLTELKNIQESLKQIQTDRQGLEAEEELLGRWQYLDVLPHKQQLKSSYVVHGSINLANKASFLSALSQWPTVYFEEIYQSMHHSYFTLVYLKEHQQSVTELLNQYSFEPLQYRYDVPPKEAYQQVKERYEILQKEEKALKQQLASYHDFYETFCLAEEVLLAVIQREQARQHLLNASSFFILQTWIPVEEKAEILTAIEEKVPKDEIALTFENPTKAEIETDIPVKLANNKLVQPFEMLTEMYSLPKYEEVDPTPAMMPFYLVFFGMMVADIGYGLLMLLLSIIALKAFVLPRGMKRFADFFLILSFPTIIWGFIYGSFFGAALPPIMFGIKSPFPILSTTEDVNTILILSVIFGFIQLVVGLMINGIQLSKQKRYLDSINESYAWLGILFGLALLVVGKLVVKNEGLFTAGAILASLSAIAIIVIPMIQSKAKLKGLAKGLYGLYGVTGYVGDLVSYTRLMALGIAGGSIASAFNMLVEFMPPVARFSVGILLLIVLHALNIFLSLLGAYVHGARLQYVEFFGKFYTGGGRAFNPLKTKEKYVNVEKK | failed
MMEKDERFKQAEFGAIVGIVGNIILAIIKAVIGYIGNSKALLADAVHSASDVIGSLAVLFGLRAAKQPPDEDHPYGHGKAESISAIIVAVLLFIVGIEIAISSIKAFSQELEPPKGITIFAVVLSIIVKEGMFQYKFRLGKRVNSDAIIANAYEHRSDVFSSIAALIGICAAIIGGKFGLDWLVYADPIAGLFVSLLVAKMAWSIGTEAIHATLDHVLHEEDVIPLREAVLQIDGVKKIGSLYAREHGHYVIVDIKVSVDPYITVEEGHRIGKRVKETLMLQDNVQNVFVHINPYSPN | failed
MARANFEPYGRDFPGGRATGRFCNGRLSSDFTSEAYGLKPTVPAYLDPSYNISDFATGVCFASAGTGYDNSTADVLGVIPLWKEVEYFKEYQSNLSAYLGHRRAAKIIRESLYIVSIGTNDFLENYYTLPDRRSQFSISQYQDFLVEIAEVFLKDIYRLGARKMSFTGISPMGCLPLERVTNLDDPFSCARSYNDLAVDFNGRLRRLVTKLNRELTGIKIYFANPYDIMWDIVTKPNLYGLEISSSACCGTGLFEMGFLCGQDNPLTCSDANKFVFWDAFHPTERTNQIVSDHFFKHLKNLFH | failed
AVSGLYSSSDDVIELTPSNFNREVIQSDGLWLVEFYAPWCGHCQRLTPEWKKAATALKDVVKVGAVNADKHQSLGGQYGVQGFPTIKIFGANKNKPEDYQGGRTGEAIVDAALSALR | not failed
MMRVKFNGKELDTDFKTSLEFFENISKNENDVWIINGFATKENIALNENDELFCIEKNTLPPKDALDAMMRARHTPKLHDKLKNGRVAVCGLGGLGSHIAINLARSGVGYLKLIDFDVIEPSNLNRQAYRVSDLGKFKTEALKEQISEINPYISVEICTLKIDEDNLESLFKDIDIVCEAFDSAIAKAMIAQNFHRFYKDGILICASGLAGYGDSNSIQTRKIAKNFYVCGDLVNGAKLGNGLMAPRVNICAGHQSNLVLELLANKELEHHHHHH | not failed
MAATRLKRRKFPTINEEFYYNQLENGMTVFLIPKESFKETLAVMSSRFGSIDTNFTVNGKKKSYLAGIAHLLEHQLFEMNKQKDAAYEFTKLGAESNAYTTFDKTIYYFSTADNIKKNLDLLQEFTSQINFTDMSIEKEKKIITQEFNMYQDDSDDYLYQVILSKLYPQTSLAEDITGNRDSIDKLTKNNLEENFHYFYQPENLTLLVAGDFDVKRVYKDIVTTQRQLPDRP | failed
